Reference: US20250352661A1 (MYTHIC THERAPEUTICS, published 2025)

T1: Human LRRC15 Protein, His Tag (Acro Biosystems) (human, UniProt Q8TF66 22-538, limits assumed)
T1 construct: not shown: His tag
T1 sequence (looked up): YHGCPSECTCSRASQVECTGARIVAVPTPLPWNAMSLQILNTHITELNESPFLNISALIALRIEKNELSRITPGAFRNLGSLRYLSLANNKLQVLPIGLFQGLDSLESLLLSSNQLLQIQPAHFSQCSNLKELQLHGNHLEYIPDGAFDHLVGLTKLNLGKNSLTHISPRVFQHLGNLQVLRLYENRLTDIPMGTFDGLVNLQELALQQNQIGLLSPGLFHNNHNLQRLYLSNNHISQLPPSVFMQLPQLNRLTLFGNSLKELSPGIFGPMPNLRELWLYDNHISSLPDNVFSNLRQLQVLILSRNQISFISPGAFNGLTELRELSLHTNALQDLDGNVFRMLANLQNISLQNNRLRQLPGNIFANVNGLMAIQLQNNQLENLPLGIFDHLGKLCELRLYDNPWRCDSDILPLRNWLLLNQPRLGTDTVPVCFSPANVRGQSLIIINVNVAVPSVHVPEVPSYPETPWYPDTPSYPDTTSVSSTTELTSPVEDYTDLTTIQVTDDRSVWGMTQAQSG


Target: T1, Human LRRC15 Protein, His Tag (Acro …)
Assay: BLI; dissociation pH 7.4 black, pH 5.4 grey [D00016 FIG. 3B]

| Binder | binding result |
| --- | --- |
| MYT7947 (antibody, V domains shown, tested as culture supernatant; also called 24D9 VL G92H) VH: QQQLVESGGGLVKPGASLTLTCKASGFSFSGSYWICWVRQAPGKGLEWIGCINGGSLDITYYASWAKGRFTISKASSTTVTLQKTSLTAADTATYFCASDTSYTAYGNFYFNLWGPGTLVTVSS VL: AQVLTQTASPVSAAVGGTVTINCQSSQSVLNNNWLAWYQQKPGQPPKLLIYDASSLASGVPSRFKGSGSGTQFTLTISDLESDDAATYYCQHEFSCGSADCNAFGGGTEVVVKG | no binding (tested: 50 nM LRRC15) |
| MYT7941 (antibody, V domains shown, tested as culture supernatant; also called 24D9 VL S54H) VH: QQQLVESGGGLVKPGASLTLTCKASGFSFSGSYWICWVRQAPGKGLEWIGCINGGSLDITYYASWAKGRFTISKASSTTVTLQKTSLTAADTATYFCASDTSYTAYGNFYFNLWGPGTLVTVSS VL: AQVLTQTASPVSAAVGGTVTINCQSSQSVLNNNWLAWYQQKPGQPPKLLIYDAHSLASGVPSRFKGSGSGTQFTLTISDLESDDAATYYCQGEFSCGSADCNAFGGGTEVVVKG | binds |
| MYT7945 (antibody, V domains shown, tested as culture supernatant; also called 24D9 VL S58H) VH: QQQLVESGGGLVKPGASLTLTCKASGFSFSGSYWICWVRQAPGKGLEWIGCINGGSLDITYYASWAKGRFTISKASSTTVTLQKTSLTAADTATYFCASDTSYTAYGNFYFNLWGPGTLVTVSS VL: AQVLTQTASPVSAAVGGTVTINCQSSQSVLNNNWLAWYQQKPGQPPKLLIYDASSLAHGVPSRFKGSGSGTQFTLTISDLESDDAATYYCQGEFSCGSADCNAFGGGTEVVVKG | binds |
| MYT7949 (antibody, V domains shown, tested as culture supernatant; also called 24D9 VL F94H) VH: QQQLVESGGGLVKPGASLTLTCKASGFSFSGSYWICWVRQAPGKGLEWIGCINGGSLDITYYASWAKGRFTISKASSTTVTLQKTSLTAADTATYFCASDTSYTAYGNFYFNLWGPGTLVTVSS VL: AQVLTQTASPVSAAVGGTVTINCQSSQSVLNNNWLAWYQQKPGQPPKLLIYDASSLASGVPSRFKGSGSGTQFTLTISDLESDDAATYYCQGEHSCGSADCNAFGGGTEVVVKG | binds |
| MYT7946 (antibody, V domains shown, tested as culture supernatant; also called 24D9 VL Q91H) VH: QQQLVESGGGLVKPGASLTLTCKASGFSFSGSYWICWVRQAPGKGLEWIGCINGGSLDITYYASWAKGRFTISKASSTTVTLQKTSLTAADTATYFCASDTSYTAYGNFYFNLWGPGTLVTVSS VL: AQVLTQTASPVSAAVGGTVTINCQSSQSVLNNNWLAWYQQKPGQPPKLLIYDASSLASGVPSRFKGSGSGTQFTLTISDLESDDAATYYCHGEFSCGSADCNAFGGGTEVVVKG | binds |
| MYT7943 (antibody, V domains shown, tested as culture supernatant; also called 24D9 VL L56H) VH: QQQLVESGGGLVKPGASLTLTCKASGFSFSGSYWICWVRQAPGKGLEWIGCINGGSLDITYYASWAKGRFTISKASSTTVTLQKTSLTAADTATYFCASDTSYTAYGNFYFNLWGPGTLVTVSS VL: AQVLTQTASPVSAAVGGTVTINCQSSQSVLNNNWLAWYQQKPGQPPKLLIYDASSHASGVPSRFKGSGSGTQFTLTISDLESDDAATYYCQGEFSCGSADCNAFGGGTEVVVKG | binds |
| MYT7953 (antibody, V domains shown, tested as culture supernatant; also called 24D9 VL S98H) VH: QQQLVESGGGLVKPGASLTLTCKASGFSFSGSYWICWVRQAPGKGLEWIGCINGGSLDITYYASWAKGRFTISKASSTTVTLQKTSLTAADTATYFCASDTSYTAYGNFYFNLWGPGTLVTVSS VL: AQVLTQTASPVSAAVGGTVTINCQSSQSVLNNNWLAWYQQKPGQPPKLLIYDASSLASGVPSRFKGSGSGTQFTLTISDLESDDAATYYCQGEFSCGHADCNAFGGGTEVVVKG | binds |

Other lines, results leading:

| binding result | Binder |
| --- | --- |
| no binding (tested: 50 nM LRRC15) | MYT7939 (antibody, V domains shown, tested as culture supernatant; also called 24D9 VL D52H) VH: QQQLVESGGGLVKPGASLTLTCKASGFSFSGSYWICWVRQAPGKGLEWIGCINGGSLDITYYASWAKGRFTISKASSTTVTLQKTSLTAADTATYFCASDTSYTAYGNFYFNLWGPGTLVTVSS VL: AQVLTQTASPVSAAVGGTVTINCQSSQSVLNNNWLAWYQQKPGQPPKLLIYHASSLASGVPSRFKGSGSGTQFTLTISDLESDDAATYYCQGEFSCGSADCNAFGGGTEVVVKG |
| no binding (tested: 50 nM LRRC15) | MYT7948 (antibody, V domains shown, tested as culture supernatant; also called 24D9 VL E93H) VH: QQQLVESGGGLVKPGASLTLTCKASGFSFSGSYWICWVRQAPGKGLEWIGCINGGSLDITYYASWAKGRFTISKASSTTVTLQKTSLTAADTATYFCASDTSYTAYGNFYFNLWGPGTLVTVSS VL: AQVLTQTASPVSAAVGGTVTINCQSSQSVLNNNWLAWYQQKPGQPPKLLIYDASSLASGVPSRFKGSGSGTQFTLTISDLESDDAATYYCQGHFSCGSADCNAFGGGTEVVVKG |
| binds | MYT7944 (antibody, V domains shown, tested as culture supernatant; also called 24D9 VL A57H) VH: QQQLVESGGGLVKPGASLTLTCKASGFSFSGSYWICWVRQAPGKGLEWIGCINGGSLDITYYASWAKGRFTISKASSTTVTLQKTSLTAADTATYFCASDTSYTAYGNFYFNLWGPGTLVTVSS VL: AQVLTQTASPVSAAVGGTVTINCQSSQSVLNNNWLAWYQQKPGQPPKLLIYDASSLHSGVPSRFKGSGSGTQFTLTISDLESDDAATYYCQGEFSCGSADCNAFGGGTEVVVKG |
| binds | MYT7942 (antibody, V domains shown, tested as culture supernatant; also called 24D9 VL S55H) VH: QQQLVESGGGLVKPGASLTLTCKASGFSFSGSYWICWVRQAPGKGLEWIGCINGGSLDITYYASWAKGRFTISKASSTTVTLQKTSLTAADTATYFCASDTSYTAYGNFYFNLWGPGTLVTVSS VL: AQVLTQTASPVSAAVGGTVTINCQSSQSVLNNNWLAWYQQKPGQPPKLLIYDASHLASGVPSRFKGSGSGTQFTLTISDLESDDAATYYCQGEFSCGSADCNAFGGGTEVVVKG |
| no binding (tested: 50 nM LRRC15) | MYT7950 (antibody, V domains shown, tested as culture supernatant; also called 24D9 VL S95H) VH: QQQLVESGGGLVKPGASLTLTCKASGFSFSGSYWICWVRQAPGKGLEWIGCINGGSLDITYYASWAKGRFTISKASSTTVTLQKTSLTAADTATYFCASDTSYTAYGNFYFNLWGPGTLVTVSS VL: AQVLTQTASPVSAAVGGTVTINCQSSQSVLNNNWLAWYQQKPGQPPKLLIYDASSLASGVPSRFKGSGSGTQFTLTISDLESDDAATYYCQGEFHCGSADCNAFGGGTEVVVKG |
| binds | MYT7940 (antibody, V domains shown, tested as culture supernatant; also called 24D9 VL A53H) VH: QQQLVESGGGLVKPGASLTLTCKASGFSFSGSYWICWVRQAPGKGLEWIGCINGGSLDITYYASWAKGRFTISKASSTTVTLQKTSLTAADTATYFCASDTSYTAYGNFYFNLWGPGTLVTVSS VL: AQVLTQTASPVSAAVGGTVTINCQSSQSVLNNNWLAWYQQKPGQPPKLLIYDHSSLASGVPSRFKGSGSGTQFTLTISDLESDDAATYYCQGEFSCGSADCNAFGGGTEVVVKG |
| binds | MYT7952 (antibody, V domains shown, tested as culture supernatant; also called 24D9 VL G97H) VH: QQQLVESGGGLVKPGASLTLTCKASGFSFSGSYWICWVRQAPGKGLEWIGCINGGSLDITYYASWAKGRFTISKASSTTVTLQKTSLTAADTATYFCASDTSYTAYGNFYFNLWGPGTLVTVSS VL: AQVLTQTASPVSAAVGGTVTINCQSSQSVLNNNWLAWYQQKPGQPPKLLIYDASSLASGVPSRFKGSGSGTQFTLTISDLESDDAATYYCQGEFSCHSADCNAFGGGTEVVVKG |
| no binding (tested: 50 nM LRRC15) | MYT7951 (antibody, V domains shown, tested as culture supernatant; also called 24D9 VL C96H) VH: QQQLVESGGGLVKPGASLTLTCKASGFSFSGSYWICWVRQAPGKGLEWIGCINGGSLDITYYASWAKGRFTISKASSTTVTLQKTSLTAADTATYFCASDTSYTAYGNFYFNLWGPGTLVTVSS VL: AQVLTQTASPVSAAVGGTVTINCQSSQSVLNNNWLAWYQQKPGQPPKLLIYDASSLASGVPSRFKGSGSGTQFTLTISDLESDDAATYYCQGEFSHGSADCNAFGGGTEVVVKG |
